In patent publication US20250000946A1 (WUXI BIOLOGICS IRELAND, published 2025):
Read-outs that look alike come from different tables or passages of the source.

T1: Human IL-2Rα/β/γ complex (high affinity IL-2 receptor) (human, UniProt P01589 22-272; P14784 27-551; P31785 23-369)
T1 construct: whole, on cells
T1 sequence (looked up) 1: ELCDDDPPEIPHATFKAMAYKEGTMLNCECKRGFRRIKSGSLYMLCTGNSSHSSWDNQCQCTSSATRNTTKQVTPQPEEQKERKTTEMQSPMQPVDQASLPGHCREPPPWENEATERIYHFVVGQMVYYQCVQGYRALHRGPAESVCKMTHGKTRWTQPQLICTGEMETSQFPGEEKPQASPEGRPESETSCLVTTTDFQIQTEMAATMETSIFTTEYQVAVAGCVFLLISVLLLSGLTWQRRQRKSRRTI
T1 sequence (looked up) 2: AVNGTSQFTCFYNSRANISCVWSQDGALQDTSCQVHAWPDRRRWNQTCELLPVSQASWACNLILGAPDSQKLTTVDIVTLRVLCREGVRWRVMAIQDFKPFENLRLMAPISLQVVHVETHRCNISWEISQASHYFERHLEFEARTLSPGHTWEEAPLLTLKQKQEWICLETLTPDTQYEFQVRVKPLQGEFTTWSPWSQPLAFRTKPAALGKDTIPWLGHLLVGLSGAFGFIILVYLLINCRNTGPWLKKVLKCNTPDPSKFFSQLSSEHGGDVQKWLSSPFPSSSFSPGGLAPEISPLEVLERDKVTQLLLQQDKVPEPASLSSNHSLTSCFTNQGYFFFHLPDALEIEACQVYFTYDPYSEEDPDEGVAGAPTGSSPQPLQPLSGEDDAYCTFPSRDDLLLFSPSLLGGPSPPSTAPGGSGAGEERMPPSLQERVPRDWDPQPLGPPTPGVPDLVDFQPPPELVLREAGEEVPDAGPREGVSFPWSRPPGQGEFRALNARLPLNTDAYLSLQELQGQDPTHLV
T1 sequence (looked up) 3: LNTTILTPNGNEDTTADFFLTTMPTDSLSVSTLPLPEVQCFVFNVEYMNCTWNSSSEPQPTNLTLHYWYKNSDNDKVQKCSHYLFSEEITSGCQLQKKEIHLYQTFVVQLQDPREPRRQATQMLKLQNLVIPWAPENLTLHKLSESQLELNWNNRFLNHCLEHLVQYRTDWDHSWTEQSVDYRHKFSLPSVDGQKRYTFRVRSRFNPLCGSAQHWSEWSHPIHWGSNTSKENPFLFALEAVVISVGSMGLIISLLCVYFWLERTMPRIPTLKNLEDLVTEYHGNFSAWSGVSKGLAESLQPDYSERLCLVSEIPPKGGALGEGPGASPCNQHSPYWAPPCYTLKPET

T2: Human IL-2Rβ/γ (intermediate affinity IL-2 receptor) (human, UniProt P14784 27-551; P31785 23-369)
T2 sequence (looked up) 1: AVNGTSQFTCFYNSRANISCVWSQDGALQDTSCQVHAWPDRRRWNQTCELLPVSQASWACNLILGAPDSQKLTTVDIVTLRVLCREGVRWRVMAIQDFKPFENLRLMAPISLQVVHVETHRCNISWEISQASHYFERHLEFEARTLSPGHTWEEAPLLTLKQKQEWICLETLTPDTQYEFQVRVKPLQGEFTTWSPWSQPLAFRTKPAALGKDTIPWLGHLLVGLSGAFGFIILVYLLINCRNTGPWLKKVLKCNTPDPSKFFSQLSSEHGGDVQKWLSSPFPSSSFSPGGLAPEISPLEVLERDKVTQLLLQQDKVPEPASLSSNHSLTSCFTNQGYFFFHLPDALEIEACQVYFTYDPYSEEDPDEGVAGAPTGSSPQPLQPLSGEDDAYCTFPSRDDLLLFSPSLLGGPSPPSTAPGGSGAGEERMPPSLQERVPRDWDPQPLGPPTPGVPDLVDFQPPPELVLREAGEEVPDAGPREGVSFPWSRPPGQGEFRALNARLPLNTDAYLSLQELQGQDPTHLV
T2 sequence (looked up) 2: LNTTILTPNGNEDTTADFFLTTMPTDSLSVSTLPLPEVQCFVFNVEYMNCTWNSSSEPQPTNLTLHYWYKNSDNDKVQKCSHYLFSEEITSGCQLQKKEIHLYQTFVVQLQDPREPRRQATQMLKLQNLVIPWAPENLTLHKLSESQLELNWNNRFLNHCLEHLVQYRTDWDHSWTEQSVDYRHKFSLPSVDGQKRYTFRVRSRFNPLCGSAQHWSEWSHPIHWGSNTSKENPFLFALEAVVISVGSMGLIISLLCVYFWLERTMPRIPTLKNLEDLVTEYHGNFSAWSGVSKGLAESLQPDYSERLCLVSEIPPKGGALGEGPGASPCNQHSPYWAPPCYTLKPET

B1: W3XX115-T2U0.E44-30.uIgG4V1 (Fc fusion)
chain: APTSSSTKKTQLQLEHLLLDLQMILNGINNYKNPKLTRMLTFKFYMPKKATELKHLQCLEEELKPLEEVLNLAQSKNFHLRPRDLISNINVIVLELKGSETTFMCEYADETATIVEFLNRWITFCQSITESKYGPPCPPCPAPEFLGGPSVFLFPPKPKDTLMISRTPEVTCVVVDVSQEDPEVQFNWYVDGVEVHNAKTKPREEQFNSTYRVVSVLTVLHQDWLNGKEYKCKVSNKGLPSSIEKTISKAKGQPREPQVYTLPPCQEEMTKNQVSLWCLVKGFYPSDIAVEWESNGQPENNYKTTPPVLDSDGSFFLYSRLTVDKSRWQEGNVFSCSVMHEALHNHYTQKSLSLSLG
heavy: EIQLQQSGPELVKPGASVKVSCKASGYSFTDYNMYWVKQSHGESLEWIGYIDPYNGGTRYNQKFKGKATLTVDKSSSTAFMHLNSLTSEDSAVYYCARNGHWDGAWFAYWGQGTLVTVSAASTKGPSVFPLAPCSRSTSESTAALGCLVKDYFPEPVTVSWNSGALTSGVHTFPAVLQSSGLYSLSSVVTVPSSSLGTKTYTCNVDHKPSNTKVDKRVESKYGPPCPPCPAPEFLGGPSVFLFPPKPKDTLMISRTPEVTCVVVDVSQEDPEVQFNWYVDGVEVHNAKTKPREEQFNSTYRVVSVLTVLHQDWLNGKEYKCKVSNKGLPSSIEKTISKAKGQPREPQVCTLPPSQEEMTKNQVSLSCAVKGFYPSDIAVEWESNGQPENNYKTTPPVLDSDGSFFLVSRLTVDKSRWQEGNVFSCSVMHEALHNHYTQKSLSLSLG
light: DIQMNQSPSSLSASLGDTITITCHASQNINVWLSWYQQKPGNIPKLLIYKASNLHTGVPSRFSGSRSGTGFTLTISSLQPEDIATYYCHQGQSYPFTFGSGTKLEIKRTVAAPSVFIFPPSDEQLKSGTASVVCLLNNFYPREAKVQWKVDNALQSGNSQESVTEQDSKDSTYSLSSTLTLSKADYEKHKVYACEVTHQGLSSPVTKSFNRGEC
notes: IL-2 del STLT and I129T; E44 format, IgG4
B2: W3XX115-T2U0.E44-5.uIgG4V1 (Fc fusion)
chain: APTSSSTKKTQLQLEHLLLDLQMILNGINNYKNPKLTRMLTFKFYMPKKATELKHLQCLEEELKPLEEVLNLAQSKNFHLRPRDLISNINVIVLELKGSETTFMCEYADETATIVEFLNRWITFCQSIISESKYGPPCPPCPAPEFLGGPSVFLFPPKPKDTLMISRTPEVTCVVVDVSQEDPEVQFNWYVDGVEVHNAKTKPREEQFNSTYRVVSVLTVLHQDWLNGKEYKCKVSNKGLPSSIEKTISKAKGQPREPQVYTLPPCQEEMTKNQVSLWCLVKGFYPSDIAVEWESNGQPENNYKTTPPVLDSDGSFFLYSRLTVDKSRWQEGNVFSCSVMHEALHNHYTQKSLSLSLG
heavy: EIQLQQSGPELVKPGASVKVSCKASGYSFTDYNMYWVKQSHGESLEWIGYIDPYNGGTRYNQKFKGKATLTVDKSSSTAFMHLNSLTSEDSAVYYCARNGHWDGAWFAYWGQGTLVTVSAASTKGPSVFPLAPCSRSTSESTAALGCLVKDYFPEPVTVSWNSGALTSGVHTFPAVLQSSGLYSLSSVVTVPSSSLGTKTYTCNVDHKPSNTKVDKRVESKYGPPCPPCPAPEFLGGPSVFLFPPKPKDTLMISRTPEVTCVVVDVSQEDPEVQFNWYVDGVEVHNAKTKPREEQFNSTYRVVSVLTVLHQDWLNGKEYKCKVSNKGLPSSIEKTISKAKGQPREPQVCTLPPSQEEMTKNQVSLSCAVKGFYPSDIAVEWESNGQPENNYKTTPPVLDSDGSFFLVSRLTVDKSRWQEGNVFSCSVMHEALHNHYTQKSLSLSLG
light: DIQMNQSPSSLSASLGDTITITCHASQNINVWLSWYQQKPGNIPKLLIYKASNLHTGVPSRFSGSRSGTGFTLTISSLQPEDIATYYCHQGQSYPFTFGSGTKLEIKRTVAAPSVFIFPPSDEQLKSGTASVVCLLNNFYPREAKVQWKVDNALQSGNSQESVTEQDSKDSTYSLSSTLTLSKADYEKHKVYACEVTHQGLSSPVTKSFNRGEC
notes: IL-2 with C-terminal 3 aa (TLT) deleted; E44 format, IgG4
B3: W3XX115-T2U0.E44-9.uIgG4V1 (Fc fusion)
chain: APTSSSTKKTQLQLEHLLLDLQMILNGINNYKNPKLTRMLTFKFYMPKKATELKHLQCLEEELKPLEEVLNLAQSKNFHLRPRDLISNINVIVLELKGSETTFMCEYADETATIVEFLNRWITFCQESKYGPPCPPCPAPEFLGGPSVFLFPPKPKDTLMISRTPEVTCVVVDVSQEDPEVQFNWYVDGVEVHNAKTKPREEQFNSTYRVVSVLTVLHQDWLNGKEYKCKVSNKGLPSSIEKTISKAKGQPREPQVYTLPPCQEEMTKNQVSLWCLVKGFYPSDIAVEWESNGQPENNYKTTPPVLDSDGSFFLYSRLTVDKSRWQEGNVFSCSVMHEALHNHYTQKSLSLSLG
heavy: EIQLQQSGPELVKPGASVKVSCKASGYSFTDYNMYWVKQSHGESLEWIGYIDPYNGGTRYNQKFKGKATLTVDKSSSTAFMHLNSLTSEDSAVYYCARNGHWDGAWFAYWGQGTLVTVSAASTKGPSVFPLAPCSRSTSESTAALGCLVKDYFPEPVTVSWNSGALTSGVHTFPAVLQSSGLYSLSSVVTVPSSSLGTKTYTCNVDHKPSNTKVDKRVESKYGPPCPPCPAPEFLGGPSVFLFPPKPKDTLMISRTPEVTCVVVDVSQEDPEVQFNWYVDGVEVHNAKTKPREEQFNSTYRVVSVLTVLHQDWLNGKEYKCKVSNKGLPSSIEKTISKAKGQPREPQVCTLPPSQEEMTKNQVSLSCAVKGFYPSDIAVEWESNGQPENNYKTTPPVLDSDGSFFLVSRLTVDKSRWQEGNVFSCSVMHEALHNHYTQKSLSLSLG
light: DIQMNQSPSSLSASLGDTITITCHASQNINVWLSWYQQKPGNIPKLLIYKASNLHTGVPSRFSGSRSGTGFTLTISSLQPEDIATYYCHQGQSYPFTFGSGTKLEIKRTVAAPSVFIFPPSDEQLKSGTASVVCLLNNFYPREAKVQWKVDNALQSGNSQESVTEQDSKDSTYSLSSTLTLSKADYEKHKVYACEVTHQGLSSPVTKSFNRGEC
notes: IL-2 with C-terminal 7 aa (SIISTLT) deleted; E44 format, IgG4

Tests used:
[1] = biological target: T1, Human IL-2Rα/β/γ complex (high affinity …); assay: FACS, MJ20 cells
Description: (§1) Human cutaneous T cell lymphoma HH cells, malignant non-Hodgkin's lymphoma NK92 cells and cutaneous T cell lymphoma MJ20 cells were used for binding assay. They both constitutively express IL-2Rβ (CD122) and […] (CD132), and NK92 and MJ20 also expresses IL-2Rα (CD25). HH, NK92 and MJ20 cells were cultured following ATCC guidance, then transferred to a 96-plate for binding analysis. Cells were incubated with IL-2/Fc fusion proteins at the indicated concentrations for 30 min at 4° C. to avoid internalization. Binding was detected by 2nd antibody of PE-anti-human Fc at 4° C. for another 30 min. The median fluorescence intensity (MFI) on HH and NK92 cells was measured using FACS.
(§2) Affinity of IL-2 variants to IL-2Rα/β/γ supported the same results (FIG. 8 and Table 7). […] And T2U0.E44-26, T2U0.E44-27, T2U0.E44-29 and T2U0.E44-30 induced hundreds to thousands affinity reduction in Treg compared to T2U0.E44-1. Binding curves in MJ20 cells (IL-2Rα/β/γ) also achieved similar trend (FIG. 8b). As a result, the method of C-terminal truncation and substitution of 129 was available to achieve IL-2Rβγ attenuated IL-2 variants.

[2] = biological target: T1, Human IL-2Rα/β/γ complex (high affinity …); assay: cell-based or functional assay
[3] = biological target: T2, Human IL-2Rβ/γ (intermediate affinity …); assay: cell-based or functional assay
[4] = biological target: T1, Human IL-2Rα/β/γ complex (high affinity …); assay: FACS, MJ20 cells; EC50 fold vs T2U0.E44-1
Description: as §1, §2

[5] = biological target: T2, Human IL-2Rβ/γ (intermediate affinity …); assay: FACS, HH cells; EC50 fold vs T2U0.E44-1
Description: as §1

[6] = biological target: T1, Human IL-2Rα/β/γ complex (high affinity …); assay: FACS, NK92 cells
Description: as §1

[7] = biological target: T2, Human IL-2Rβ/γ (intermediate affinity …); assay: FACS, HH cells
Description: as §1

[8] = biological target: T1, Human IL-2Rα/β/γ complex (high affinity …); assay: FACS, NK92 cells; EC50 fold vs T2U0.E44-1
Description: as §1

[9] = biological target: T1, Human IL-2Rα/β/γ complex (high affinity …); assay: cell-based or functional assay; remark: listed apart in the source
[10] = biological target: T2, Human IL-2Rβ/γ (intermediate affinity …); assay: cell-based or functional assay; remark: listed apart in the source

Binder | EC50 [1] [nM] | Potency in human Treg EC50 [2] [nM] | Potency reduction (Treg) [2] [fold] | Potency in human CD8+ T EC50 [3] [nM] | Potency reduction (CD8+ T) [3] [fold] | Affinity reduction [4] [fold] | Affinity reduction [5] [fold] | EC50 [6] [nM] | EC50 [7] [nM] | Affinity reduction [8] [fold] | Potency in human Treg EC50 [9] [nM] | Potency reduction (Treg) [9] [fold] | Potency in human CD8+ T EC50 [10] [nM] | Potency reduction (CD8+ T) [10] [fold]
B1 | 183 | 2.64 | 1050 | 493 | 24.7 | 13 | – | – | – | – | – | – | – | –
B2 | – | – | – | – | – | – | 1.62 | 14.5 | 50.1 | 2.63 | 4.62 | 179 | 18 | 1.89
B3 | – | – | – | – | – | – | 1.76 | 8.52 | 54.5 | 1.55 | 1.44 | 55.6 | 96.5 | 10.1
